Reference: the supplement of paper PMC9170038

Test system: MS2 coat protein
Experiment: apparent KD of MS2 coat protein; designed switch direction (-1 OFF switch, 1 ON switch): -1; higher = weaker reporter binding
Summary of the method: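 RNA switches sharing common flanks were transcribed by stalled E. coli RNA polymerase on Illumina chips. A doubling series of SNAP-549-labelled MS2 coat protein, from 0.7 or 1.5 nM to 3 µM, was applied in Tris-HCl pH 7.5 buffer with KCl, MgCl2, BSA, DTT, tRNA and Tween-20. Each step lasted 0.8–1.5 h at the bottom of the series and 10–20 min at the top. Normalised cluster fluorescence was curve-fitted, giving apparent KD as the per-design median over clusters.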

[1] = Eterna round: R95, input ligand: FMN 200 uM
[2] = Eterna round: R95, input ligand: microRNA oligo, concentration not stated
[3] = Eterna round: R95, input ligand: none
[4] = input ligand: microRNA oligo, concentration not stated

Row | Sequence | apparent KD of MS2 coat protein (input ligand: FMN 200 uM) [nM] | apparent KD of MS2 coat protein (input ligand: none) [nM] | apparent KD of MS2 coat protein [1] [nM] | apparent KD of MS2 coat protein [2] [nM] | apparent KD of MS2 coat protein [3] [nM] | apparent KD of MS2 coat protein [4] [nM]
1 | GGCACACAUGAGGAUCACCCAUGUGAGGAUAUGUGGCGAUCGUCGAUAGACGAUAGCCACAGAAGGCACAUGCC [Mat - Exclusion 1 - Eli Mod - D9] (Eterna round: R97, puzzle: Exclusion 1) | 39.4 | 17.8 | – | – | – | –
2 | CAUACACAUGAGGAUCACCCAUGUGAGGAUAUGCGUACGUUGUCCGUAGGCGACGUGCGCAGAAGGCGCAUGAG [JL-ex1-3.13 Eli mod] (puzzle: Exclusion 1) | – | – | 27.6 | 90.9 | 91.6 | –
3 | CGAAAGGUAGGAUAUACGAAGAAAAAGGGUAGAAGAAGAACACAUGAGGAUCACCCAUGUAGAAGGACCAAAGC [Mat - Exclusion 2 - Mod of my Tesla design - D16] (puzzle: Exclusion 2) | – | – | 65.1 | 22.1 | 20.5 | –
4 | GGAUCGAAUGUGAGGAUAUGCUGGUCCUUGGAUCAGCAGAAGGCACAUGAGGAUCACCCAUGUGAAGACGGUCC [Eli bmx4 4.31] (Eterna round: R97, puzzle: Brourd's mod of Exclusion 4) | 201 | 41.4 | – | – | – | –
5 | AAUAUAAGCAAGAUCCUAAACAUGAGGAUCACCCAUGUGCUCGUCUUAUAAAGUACUAUCACGAAAGUGAUAGUACA [Sensor 3, v1 - 65] (puzzle: Sensor v3, turn-off variant 1) | – | – | 111 | 398 | 127 | –
6 | ACAUUACAUGAGGAUCACCCAUGUGAGGAUAUGGAGCGAGAGUGUCCUGUCGCGUACACCAGAAGGCGCGGGUG [1st #50] (Eterna round: R97, puzzle: Exclusion 1) | 235 | 80.1 | – | – | – | –
7 | AAUAACAGAGGAUAUACUGUUUUAUGUGUUUGUUGUUUUAAACAUGAGGAUCACCCAUGUAGAAGGCUGAAUAA [JMF 19] (puzzle: Exclusion 2) | – | – | – | 18.4 | – | –
8 | AAUUCACAUGAGGAUCACCCAUGUCAGGAUAUGGUGACGCGGGUUUCGGUGCGUGUUGCCAGAAGGGACAGCUA (puzzle: Exclusion 1) | – | – | – | 81.3 | – | –
9 | GGUUGGCGAGGAUAUACAUGAGGAUCACCCAUGUGAGAAAGAAAAGUGAGGAAGAAAAGUAGAAGGCGCUGACG [Mat - Exclusion 3 - Mod of Salish D2] (puzzle: Exclusion 3) | – | – | 583 | 53.4 | 99.8 | –
10 | GAAAAGGUAGGAUAUACGAAAAUAAAGGGUAGAAAUAAAACACAUGAGGAUCACCCAUGUAGAAGGACCAAAAG [salish99_ex2_r3_096] (puzzle: Exclusion 2) | – | – | 70.6 | 23.3 | 23.2 | –
11 | GGGAAACAUGAGGAUCACCCAUGUGAGGAUAUGAAAAAGAAAAGAAAAGAAAGAAGAAUCAGAAGGCACAAAGG [salish99-ex1_r3_079] (puzzle: Exclusion 1) | – | – | 75.5 | 36.1 | 54.9 | –
12 | GAAAAGGUAGGAUAUACGAUAAUAAAGGGUAGAUAAUAAACACAUGAGGAUCACCCAUGUAGAAGGACCAAAAG [salish99_ex2_r3_103] (puzzle: Exclusion 2) | – | – | 127 | 35 | 35.2 | –
13 | GCAGCAUAGAUAACAUACUGUUACAUGAGGAUCACCCAUGUACAGGAUAUGGUCUGGAUUACAGGCCAGAAGGGUACAAGCUGC [Eli exng3 - 021] (Eterna round: R96, puzzle: Exclusion NG 3) | 10.8 | 12.1 | – | – | – | 8.63
14 | GUCUUCAUGACAUGAGGAUCACCCAUGUGUUAUAUUUUUACUAAGGAUAUAUUUUUAAUGUUGAGAUAGAAGGUAGUUUCGGUC [JR_ExcNG3_Sub092] (Eterna round: R96, puzzle: Exclusion NG 3) | – | – | – | – | – | 79.1
15 | CACAGGAGACGGAGAUCCAACAUGAGGAUCACCCAUGUCUCAAAAGCUUUUUGCUUGUCUUAUCCUCCUCUCUUGAC [Mat - Sensor, turn-off var - Eli Mod - D60] (Eterna round: R97, puzzle: Sensor, turn-off variant 1) | 26 | 28.1 | – | – | – | –
16 | GCAGUGCGAGGAUAUACAUGAGGAUCACCCAUGUGAGAAGAAUAAGUGAGGAAGAAAAGUAGAAGGCGCGUUGG [Mat - Exclusion 3 - Mod of Salish D68] (puzzle: Exclusion 3) | – | – | 71.8 | 47.4 | 54.6 | –
17 | GAUCUGACAGGAUAUACAUGAGGAUCACCCAUGUGCGUGCUAGCGAAAGCUAGCGCAGGUAGAAGGGUCAGAUC [Ex3 dot plot directed v4] (puzzle: Exclusion 3) | – | – | 14.4 | 11.3 | 12.9 | –
18 | CACCUGAACACAGGAUAUCAUACAUGAGGAUCACCCAUGUAAUAAAUGAGAAUUUCGAAUGUAAUUGAGAAGGGUGGAUAAGGC [Ostricism 90 - Jieux - Exclusion NG 2] (Eterna round: R96, puzzle: Exclusion NG 2) | 97.8 | 41.1 | – | – | – | 34.6
19 | CAUGCUUCGGCAUGUACAAGCUUUUUGCUCGUCUUAUUAACAUGAGGAUCACCCAUGUUAAUGAGACCUCAUGUAUU [Sensor v3 - turn-off variant 2 - 8] (puzzle: Sensor v3, turn-off variant 2) | – | – | 13.6 | 16.7 | 11.4 | –
20 | CGUGAGCGCGUCAGGAUAUGGCGGCGGCGGCGGCGCCAGAAGGGACAUGAGGAUCACCCAUGUUGCGUGCGUGG [Prefect Broudrd's mod of Exclusion] (Eterna round: R97, puzzle: Brourd's mod of Exclusion 4) | 73 | 39.3 | – | – | – | –
21 | AGUAACUAUCACGAAAGUGAUAGUUACACAAGUGUAAUAACAUGAGGAUCACCCAUGUCCUCAUUUGCUCGUCUUAU [Sensor 3 - 34] (puzzle: Sensor v3, turn-off variant 2) | – | – | 149 | 162 | 33.6 | –
22 | CCAAUGUAAGGAUAUGACAAUGGUAUCUUCGGAUACCAUUGUCAGAAGGUACAUGAGGAUCACCCAUGUACAAA [Ex4-3: 9] (puzzle: Exclusion 4) | – | – | – | 13.4 | – | –
23 | GUCUUCAUGACAUGAGGAUCACCCAUGUGUUAUAUGUUAACUAAGGAUAUAUUUUUAAUGUUGAGAUAGAAGGUAGUUUCGGUC [JR_ExcNG3_Sub091] (Eterna round: R96, puzzle: Exclusion NG 3) | 120 | 131 | – | – | – | 95.8
24 | UGCCUACAUGAGGAUCACCCAUGUGAGGAUAUCCUGCGAGGAUCAAAAGAUCCUCGUGGGAGAAGGCGCCUGGA [Omei Ex1 B5] (Eterna round: R97, puzzle: Exclusion 1) | 19.9 | 16.2 | – | – | – | –
25 | AAAAAGGGAGGAUAUACAUGAGGAUCACCCAUGUAGCAGACGAAAAAGAGUCUGUAAUGUAGAAGGCCCAAAAA [65%, Moding Exclusion3-cac2, 4] (Eterna round: R96, puzzle: Exclusion 3) | 50.9 | 17.5 | – | – | – | 13.1
